According to patent US20240376222A1 (University of Texas, published 2024):
Read-outs that look alike come from different tables or passages of the source.

Assays:
[1] = target: T1, human TfR extracellular domain (ECD) (human, UniProt P02786 89-760); assay: BLI (Octet), IgG on Protein A sensor, huTfR-ECD-His in solution, 1:1 global fit
T1 construct: extracellular domain; Bought protein; also called HuTfR; huTfR
Procedure: FIG. 1. Illustrates the Kinetics and binding affinities of human transferrin receptor (TfR) antibodies and represents the kinetic binding graphs determined using BLI method with Octet 96-Red instrument. Protein A sensors (Fortebio) were used to capture anti-TfR IgG. During all incubation steps, sample temperature was set to room temperature with 1000 rpm shaking. Individual purified TfR antibodies were loaded onto sensors. After antibody capture, the antibody-loaded sensors were subject to a solution flow containing huTfR-ECD-His at designated concentrations: (indicated by the colored lines under each graphs) and for a defined time (shown in X-axis). After binding, the sensors were incubated in blank kinetics buffer to allow free dissociation of TfR for designated time. The binding kinetics parameters were calculated by the software from Fortebio (version 11) using 1:1 binding model with global fitting.

[2] = target: T1, human TfR extracellular domain (ECD); assay: phage ELISA, scFv phage on coated TfR, anti-M13-HRP, single point
[3] = target: T2, muTfR extracellular domain (ECD), His-tagged (mouse, UniProt Q62351 89-763); assay: BLI (Octet), IgG on Protein A sensor, muTfR-ECD-His in solution, 1:1 global fit
T2 construct: extracellular domain; Bought protein (Sino Biological); also called muTfR-His; muTfR ECD
T2 sequence (Q62351 89-763): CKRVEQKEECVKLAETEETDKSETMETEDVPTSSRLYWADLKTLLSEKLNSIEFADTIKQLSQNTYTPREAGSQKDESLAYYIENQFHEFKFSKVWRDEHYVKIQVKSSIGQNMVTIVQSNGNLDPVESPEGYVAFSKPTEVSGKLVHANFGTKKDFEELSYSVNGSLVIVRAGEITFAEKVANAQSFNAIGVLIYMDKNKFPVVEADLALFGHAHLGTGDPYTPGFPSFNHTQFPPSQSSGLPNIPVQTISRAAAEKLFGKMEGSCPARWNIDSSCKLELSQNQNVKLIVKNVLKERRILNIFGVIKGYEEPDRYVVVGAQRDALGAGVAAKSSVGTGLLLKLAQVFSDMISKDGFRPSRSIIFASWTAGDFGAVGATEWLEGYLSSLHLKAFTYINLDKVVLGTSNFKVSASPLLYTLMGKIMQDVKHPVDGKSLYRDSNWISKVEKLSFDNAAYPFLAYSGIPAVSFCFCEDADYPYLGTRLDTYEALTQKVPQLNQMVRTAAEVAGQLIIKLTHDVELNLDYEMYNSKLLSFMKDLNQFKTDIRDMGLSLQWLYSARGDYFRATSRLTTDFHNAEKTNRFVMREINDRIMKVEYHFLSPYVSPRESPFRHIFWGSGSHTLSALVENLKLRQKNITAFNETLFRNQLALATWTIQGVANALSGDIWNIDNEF
Description: FIG. 3. Illustrates the Kinetics and binding affinities of murine transferrin receptor (TfR) antibodies and represents the kinetic binding graphs determined using BLI method with Octet 96-Red instrument. Protein A sensors (Fortebio) were used to capture anti-TfR IgG. Individual purified TfR antibodies were loaded onto Protein A sensors and subject to a solution flow containing muTfR-ECD-His at designated concentrations: (indicated by the colored lines under each graphs) and for a defined time (shown in X-axis). After binding, the sensors were incubated in blank kinetics buffer to allow free dissociation of TfR for designated time.
FIG. 4: Illustrates the binding kinetics parameters were calculated by the software from Fortebio (version 11) using 1:1 binding model with global fitting. KD is calculated by kdis/kon as determined from the FIG. 3 data.

[4] = target: T1, human TfR extracellular domain (ECD); assay: phage ELISA, scFv phage on coated TfR, anti-M13-HRP, single point; remark: listed apart in the source
[5] = target: T3, cynomolgus TfR extracellular domain (ECD) (cynomolgus); assay: Octet BLI, serial dilution of antigen
T3 chain: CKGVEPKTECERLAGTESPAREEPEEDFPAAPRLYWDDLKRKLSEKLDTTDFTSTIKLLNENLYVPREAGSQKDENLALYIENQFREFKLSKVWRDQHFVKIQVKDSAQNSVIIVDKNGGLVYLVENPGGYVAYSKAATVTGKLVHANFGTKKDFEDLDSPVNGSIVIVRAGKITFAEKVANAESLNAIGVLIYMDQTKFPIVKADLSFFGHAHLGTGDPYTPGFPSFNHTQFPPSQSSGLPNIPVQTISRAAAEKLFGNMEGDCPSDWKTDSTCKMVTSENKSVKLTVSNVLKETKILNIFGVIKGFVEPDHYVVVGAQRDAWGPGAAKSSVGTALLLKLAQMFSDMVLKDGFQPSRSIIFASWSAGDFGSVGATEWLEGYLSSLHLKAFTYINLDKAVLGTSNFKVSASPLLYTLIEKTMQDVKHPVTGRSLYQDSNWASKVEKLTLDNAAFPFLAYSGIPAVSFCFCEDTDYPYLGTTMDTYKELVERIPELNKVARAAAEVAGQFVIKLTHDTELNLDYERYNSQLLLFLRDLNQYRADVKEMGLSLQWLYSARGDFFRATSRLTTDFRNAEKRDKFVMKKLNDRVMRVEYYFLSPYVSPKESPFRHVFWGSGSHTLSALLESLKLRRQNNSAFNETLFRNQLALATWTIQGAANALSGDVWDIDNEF

[6] = target: T1, human TfR extracellular domain (ECD); assay: Octet BLI, serial dilution of antigen

B1: Ab1 (antibody, V domains shown)
VH: QVQLMQSGAEVKKPGSSVKVSCKASGGTFSSYAISWVRQAPGQGLEWMGRIIPILGIANYAQKFQGRVTITADKSTSTAYMELSSLRSEDTAVYYCARDRDTMVRGGMDVWGQGTMVTVSS
VL: QSALNQPPSASGSPGQSVTISCTGTGSDIGGHNYVSWYQQHPGKAPKLMIYDVSKRPSRVPDRFSGSKSGNTASLTVSGLQAEDEADYYCSSYAGSNVVFGAGTKVTVL
[1]
  Kd: 3.46 nM
  koff: 0.000398 s⁻¹
  kon: 115000 M⁻¹ s⁻¹

B2: Ab30 (antibody, V domains shown)
VH: EVQLVQSGGGLAQPGGSLRLSCAASGFTFSIYSMNWVRQAPGKGLEWVSYIGGGGTSIYYADSVKGRFTISRDNAKNSLSLQMNSLRAEDTGVYYCARGKPATGFDYWGQGTLVSVSS
VL: QSVLTQPRSVSGSPGQSVTISCTGTSSDVGGYNYVSWYQQHPGKAPKLMISEVSKRPSGVPDRFSGSKSGNTASLTVSGLQAEDEADYYCSSYAGGYTPYVFGTGTKVTVL
[1]
  Kd: < 0.001 nM
  koff: < 1e-07 s⁻¹
  kon: 119000 M⁻¹ s⁻¹

B3: 7A1 (antibody, V domains shown)
VH: QVQLVQSGAEVKKPGSSVKVSCKASGGTFSSYAISWVRQAPGQGLEWMGGIIPIFGTANYAQKFQGRVTITADESTSTAYMELSSLRSEDTAVYYCARSGYYNDAFDIWGQGTMVTVSS
VL: QSALTQPASVSGSPGQSITISCTGTNSDIGGYNYVSWYQQHPGKAPKLMIYEVSNRPSGVSNRFSGSKSGNTASLTISGLQAEDEAHYYCSSYTSSSTLVFGGGTKVTVL
notes: Human IgG1, converted from a phage scFv clone
[2]
  binding result: binds

B4: 7B10 (antibody, V domains shown)
VH: QVQLVQSGAEVKKPGASVKVSCKASGYTFTSYGISWVRQAPGQGLEWMGWISAYNGNTNYAQKLQGRVTMTTDTSTSTAYMELRSLRSDDTAVYYCARDQKLLHILYYYGMDVWGQGTTVIVSS
VL: DIVMTQSPLSLSVTPGEPASISCRSSQSLLHSNGNNYLDWYLQKPGQSPQLLIYLGSNRASGVPDRFSGSGSGTDFSLKINKVEAEDVGVYYCMQALQTAYTFGQGTKLEIK
notes: as for B3
[2]
  binding result: binds

B5: 8A5 (antibody, V domains shown)
VH: QVQLVQSGAEVKKPGESLRISCKGSGYSFTSYWISWVRQMPGKGLEWMGRIDPSDSYTNYSPSFQGHVTISADKSISTAYLQWSSLKASDTAIYYCARARTWFDAFDIWGQGTTVTVSS
VL: QAVVTQPPSASGTPGQRVTISCSGGSSNIGRYSVNWYQQLPGTAPKLLINSNIQRPSGVPDRFSGSKSGTSASLAISGLQSEDEADYHCAAWDDSLKGWVFGGGTKVTVL
notes: as for B3
[2]
  binding result: binds

B6: 8G5 (antibody, V domains shown)
VH: QVQLVQSGAEVKKPGASVKVSCKASGYTFTSYGISWVRQAPGQGLEWMGWISAYNGNTNYAQKLQGRVTMTTDTSTSTAYMELRSLRSDDTAVYYCARVGYYYYGMDVWGQGTTVTVSS
VL: QSVLTQPPSVSGAPGQRVTISCTGSSSNIGAGFDVHWYQQLPGTAPKLLIYANSNRPSGVPDRFSASKSGTSASLAITGLQAEDEADYYCQSYDRSLSGYVFGSGTKVTVL
notes: as for B3
[2]
  binding result: binds

B7: Ab2 (antibody, V domains shown)
VH: QVQLVQSGAEVKKPGSSVKVSCKASGGTFSSYAISWVRQAPGQGLEWMGGIIPIFGTANYAQKFQGRVTITADESTSTAYMELSSLRSEDTAVYYCARFAFFSLASEDYWGQGTLVIVSS
VL: not shown
[3]
  Kd: 8.37 nM
  koff: 0.000145 s⁻¹
  kon: 17300 M⁻¹ s⁻¹

B8: 1B2 (antibody, V domains shown)
VH: QVQLVQSGAEVKKPGESLRISCKGSGYSFTSYWISWVRQMPGKGLEWMGRIDPSDSYTNYSPSFQGHVTISADKSISTAYLQWSSLKASDTAMYYCARHPLAYCGGDCQRGFDYWGQGTLVTVSS
VL: QPVLTQPPSVSVSPGQTARITCSGDKLREDLTSWYQQKPGQSPVLVIYQDSKRPSGIPARFSGSISGSTATLTISGTQAVDEADYYCQAWDNSVDYVFGTGTKVTVL
notes: as for B3
[4]
  binding result: binds

B9: 1C8 (antibody, V domains shown)
VH: QVQLVQSGAEVKKPGSSMKVSCKASGGTFSSYAISWVRQAPGQGLEWMGGIIPIFGTAKYAQKFQGRVTITADESTTTAYMELSSLSSEDTAVYYCARSLGWYYAFDIWGQGTMVTVSS
VL: DIVMTQSPSTLSASVGDRVTITCRASQNINNWLAWYQQKPGKAPKLLIYKASTAESGVPSRFSGSGFGTEFTLTISSLQPDDFASYYCQQYKNYPYSNLYTFGQGTKVDIK
notes: as for B3
[4]
  binding result: binds

B10: muTfR Ab4 (antibody, V domains shown)
VH: EVQLVESGGGLVKPGGSLRLSCAASGFTFSWYTMNWVRQAPGKGLEWVSSISSSSSDMYYADSVKGRFTISRDNAKNSLYLQIDSLRAEDTAVYYCARAHYYDSTSLNHFYGMDVWGQGTTVTVSS
VL: QSVLTQPPSVSVAPGKTARITCGGNNIGSRTVHWYQQRPGQAPMLVVSDDNDRPSGIPERFSGSNSGNTATLTITRVEAGDEADYYCQVWDSSSDHLVFGGGTQLTVL
modifications: Biotinylated when used as the probe in the competition ELISA; the sites are not stated and the letters do not carry them.
notes: also called anti-muTfR Ab4; biotinylated Ab4
[3]
  Kd: 5.03 nM
  koff: 0.000391 s⁻¹
  kon: 77700 M⁻¹ s⁻¹

B11: Ab5 (antibody, V domains shown)
VH: QVQLVESGGGLVQPGRSLRLSCAASGFTFDDYAMHWVRQAPGKGLEWVSGISWNSGSIGYADSVKGRFTISRDNAKNSLYLQMNSLRAEDTALYYCAKVSSQSGSVAGFDYWGQGTLVSVSS
VL: QPVLTQPPSASGTPGQRVTISCSGSSSNIGANYVYWYQQLPGTAPKLLIYRNNQRPSGVPDRFSGSKSGTSASLAIGGLRSEDEADYYCAGWDDSLSGVLFGGGTKVTVL
[3]
  Kd: 2.58 nM
  koff: 0.000135 s⁻¹
  kon: 52300 M⁻¹ s⁻¹

B12: Ab42 (antibody, V domains shown)
VH: QVQLVQSGAEVKKPGSSVKVSCKASGGTFSSYAISWVRQAPGQGLEWMGGIIPIFGTANYAQKFQGRVTITADESTSTAYMELSSLRSEDTAVYYCARGATRGMDVWGQGTLVTVSS
VL: DIVMTQSPSSLSASVGDRVTITCRASQSISNFLNWYQQKPGKAPKLLIYAASSLQSGVPSRFSGSRSGTDFTLTISSLQPEDFATYYCQQSSSIPLTFGGGTKLEIK
[3]
  Kd: 2.09 nM
  koff: 0.00013 s⁻¹
  kon: 62000 M⁻¹ s⁻¹

B13: Ab59 (antibody, V domains shown)
VH: QVQLVESGGGVVQPGRSLRLSCAASGFTFSSYAMHWVRQAPGKGLEWVAVISYDGSNKYYADSVKGRFTISRDNSKNTLYLQMNSLRAEDTAVYYCARGGPYYDFWSDGMDVWGQGTMVTVSS
VL: QSVLTQPHSVSESPGKTVTISCTRSSGSIASNYVQWYQQRPGSSPTTVIYEDNQRPSGVPDRFSGSIDSSSNSASLTISGLKTEDEADYYCQSYDSSNYVFGTGTKVTVL
[3]
  Kd: 2.17 nM
  koff: 0.000162 s⁻¹
  kon: 74900 M⁻¹ s⁻¹

B14: 4G1 (antibody, V domains shown)
VH: EVQLLESGGGLIQPGGSLRLSCAASGFSVSSYYMNWVRQAPGKGLEWVSNTYTDGSTSYADSVGGRFSVSRDNSKNTLHLQMNSLRVEDTAVYYCAREGDGYNSGGLDYWGQGTLVTVSS
VL: DIQLTQSPASLSASLGDRVTITCRASQSIGTYLNWYQQRPGQAPKLLIFGTSSLQSGVPSRFSGSGSGTDFTLTISSLQPEDLATYYCQQTYITPRTFGQGTKVEIK
notes: as for B3
[5]
  Kd: < 0.001 nM
  koff: < 1e-07 s⁻¹
  kon: 94500 M⁻¹ s⁻¹
[6]
  Kd: < 0.001 nM
  koff: < 1e-07 s⁻¹
  kon: 79900 M⁻¹ s⁻¹

B15: 5B6 (antibody, V domains shown)
VH: PVLLVQSGAEVKKPGSSVKVSCKASGGTFSSYAISWVRQAPGQGLEWMGGIIPIFGTANYAQKFQGRVTITADESTSTAYMELSSLRSEDTAVYYCAVSIFGVVIPLDYWGQGTLVIVSS
VL: QPVLTQSPSVSLAPGQTAKITCGGTNIGRKSVHWYQQKPGQAPVMVIYYDSDRPSGIPERFAGSNSGNTATLTISRVEAGDEAVYYCQVWDSSSASGVFGGGTKVTVL
notes: as for B3
[5]
  Kd: < 0.001 nM
  koff: < 1e-07 s⁻¹
  kon: 87900 M⁻¹ s⁻¹
[6]
  Kd: 0.575 nM
  koff: 2.98e-05 s⁻¹
  kon: 51800 M⁻¹ s⁻¹
